Reference: publication PMC7920261 (Science (New York, N.y.), 2020)

Experiments:
[1] = target: T1, SARS-CoV-2 spike receptor-binding domain (RBD) (SARS-CoV-2, UniProt P0DTC2); assay: BLI; settings: both partners purified
[2] = target: T1, SARS-CoV-2 spike receptor-binding …; assay: ELISA; settings: both partners purified

B1: CTC-445.2t (designed binder)
chain: SAEIDLGKGDFREIRASEDAREAAEALAEAARAMKEALEIIREIAEKLRDSSRASEAAKRIAKAIRKAADAIAEAAKIAARAAKDGDAARNAENAARKAKEFAEEQAKLADMYAELAKNGDKSSVLEQLKTFADKAFHEMEDRFYQAALAVFEAAEAAAGGGGSGGSGSGGSGGGSSAEIDLGKGDFREIRASEDAREAAEALAEAARAMKEALEIIREIAEKLRDSSRASEAAKRIAKAIRKAADAIAEAAKIAARAAKDGDAARNAENAARKAKEFAEEQAKLADMYAELAKNGDKSSVLEQLKTFADKAFHEMEDRFYQAALAVFEAAEAAAGGGGSGGSGSGGSGGGSSAEIDLGKGDFREIRASEDAREAAEALAEAARAMKEALEIIREIAEKLRDSSRASEAAKRIAKAIRKAADAIAEAAKIAARAAKDGDAARNAENAARKAKEFAEEQAKLADMYAELAKNGDKSSVLEQLKTFADKAFHEMEDRFYQAALAVFEAAEAAAG
Kd [1]: ~0.27 nM | IC50 [2]: ~0.01 nM
